From patent US20250333486A1 (NATIONAL HEALTH RESEARCH INSTITUTES, published 2025)

Tests used:
[1] = target: T1, CD91, cell-surface receptor of eHSP90α, on PANC-1 cells (UniProt Q07954 20-4544, limits assumed); experiment: proximity ligation assay (PLA) in PANC-1 cells, 15 µg/ml rHSP90α, with or without 10 µg/ml control IgG, Clone-2 or Clone-6 [d]
T1 construct: whole, on cells; Endogenous receptor on human PANC-1 cells, detected by proximity ligation assay; also called CD91/LRP-1
Protocol: PANC-1 cells seeded onto glass coverslips at a density of 2×10⁵ cells per 22×22-mm coverslip were incubated 16 h with 0.5% serum-containing medium at 37° C. plus a 5% CO₂ humidified atmosphere. The cells were then added with PBS or 15 μg/ml of rHSP90α in the absence or presence of 10 μg/ml of control IgG or the tested anti-HSP90α antibody for another 24-h incubation. The treated cells were then fixed with 3% paraformaldehyde and blocked with the blocking solution provided in the Duolink in situ PLA kit (Olink Bioscience, Uppsala, Sweden). Furthermore, the cell samples were incubated overnight at 4° C. with anti-CD91 antibody (1:80, cat. #550495, BD Biosciences, San Jose, CA, USA) mixed with anti-HSP90α antibody (1:80, cat. #AHP-1339, AbD Serotec, Raleigh, NC, USA) or anti-IKKα antibody (1:80, cat. #3285, Epitomics Co., Burlingame, CA, USA). After washed trice with Tris-buffered saline plus 0.05% Tween 20, the cell samples were incubated with PLA probes for the subsequent ligation and amplification procedure according to the manufacturer's instructions for the Duolink in situ PLA kit. Finally, nuclei were counterstained with 4′,6′-diamidino-2-phenylindole (DAPI; Sigma-Aldrich). Images were photographed and analyzed using Leica TCS SP5 II confocal microscope and LAS AF Lite 4.0 software (Leica, Wetzlar, Germany).

[2] = target: T2, recombinant 732-amino acid full-length human HSP90α (rHSP90α; PeproTech) (human, UniProt P07900 1-732, limits assumed); experiment: SPR, Biacore T200, fitted to a 1:1 interaction model [b]
T2 construct: Bought protein used as immunogen, ELISA coat (12.5 ng/ml), Biacore analyte and cell stimulus; also called recombinant human HSP90α; eHSP90α
Protocol: (§1) To measure the HSP90α-binding characteristics of anti-HSP90α antibodies, binding kinetic assays were performed using Biacore T200 (Cytiva Co., Marlborough, MA, USA). The interested anti-HSP90α antibodies were applied onto Protein A Series S sensor chips as ligands to achieve approximately 3000˜5000 response units. A series of concentrations of rHSP90α (1.5625-100 nM) in HBS-EP+ buffer were injected over the chip surface. The association was monitored for 60 sec, and the final dissociation time was 1500 sec.

EDKEEEKEKE = target: T3, EDKEEEKEKE; experiment: peptide-scanning ELISA on plates coated with 10-a.a. peptides [b]
T3 construct: HSP90α a.a
T3 peptide: EDKEEEKEKE
From the text: (§2) At first, the domain scanning strategy was used to roughly delineate the HSP90α region responsible for the binding with our prepared antibodies. The above-mentioned full-length HSP90α and its 3 truncated fragments were employed to coat 96-well ELISA plates for assaying the binding activities of the tested mouse monoclonal antibodies. […] Therefore, in peptide scanning strategy, a 132 peptide library was synthesized by Mimotopes Pty. Ltd. (Melbourne, Victoria, Australia), consisting of a series of 10-a.a. peptides offset by 2 a.a. to span the sequence of the a.a. […] This series of peptides were used to coat 96-well ELISA plates for assaying the binding activities of the tested antibodies. […] These peptides were subjected to ELISA as described above.

KPEIEDVGSD = target: T4, KPEIEDVGSD; experiment: as above
T4 construct: HSP90α a.a
T4 peptide: KPEIEDVGSD
From the text: as §2

EIEDVGSDEE = target: T5, EIEDVGSDEE; experiment: as above
T5 construct: HSP90α a.a
T5 peptide: EIEDVGSDEE
From the text: as §2

EDVGSDEEEE = target: T6, EDVGSDEEEE; experiment: as above
T6 construct: HSP90α a.a
T6 peptide: EDVGSDEEEE
From the text: as §2

VGSDEEEEKK = target: T7, VGSDEEEEKK; experiment: as above
T7 construct: HSP90α a.a
T7 peptide: VGSDEEEEKK
From the text: as §2

DKEVSDDEAE = target: T8, DKEVSDDEAE; experiment: as above
T8 construct: HSP90α a.a
T8 peptide: DKEVSDDEAE
From the text: as §2

[3] = target: T2, recombinant 732-amino acid full-length …; experiment: SPR, Biacore T200; antibody captured on Protein A chip, rHSP90α 1.5625-100 nM as analyte; 1:1 model
Protocol: as §1

KEKEEKESED = target: T9, KEKEEKESED; experiment: peptide-scanning ELISA on plates coated with 10-a.a. peptides [c]
T9 construct: HSP90α a.a
T9 peptide: KEKEEKESED
From the text: as §2

SDEEEEKKDG = target: T10, SDEEEEKKDG; experiment: as above
T10 construct: HSP90α a.a
T10 peptide: SDEEEEKKDG
From the text: as §2

EVSDDEAEEK = target: T11, EVSDDEAEEK; experiment: as above
T11 construct: HSP90α a.a
T11 peptide: EVSDDEAEEK
From the text: as §2

a.a. 630~732 = target: T12, a.a. 630~732; experiment: domain-scanning ELISA on plates coated with full-length or truncated His-tagged HSP90α [a]
T12 construct: not shown: left out of the chain
From the text: as §2
As listed in the above Table 3, HH01 antibody is capable of binding specifically to the human HSP90α with novel amino acid (a.a.) sequences in the complementarity determining regions (CDRs), and therefore we intended to identify which region of HSP90α was bound by HH01 antibody. In a preliminary study, we employed the strategy of HSP90α domain scanning to delineate the HSP90α region responsible for the binding with Clone-2 antibody. […] Subsequently, the binding activities of Clone-2 antibody to the full-length and truncated HSP90α were assayed by a conventional ELISA method.

T12 sequence (chain, as listed by the source limits assumed): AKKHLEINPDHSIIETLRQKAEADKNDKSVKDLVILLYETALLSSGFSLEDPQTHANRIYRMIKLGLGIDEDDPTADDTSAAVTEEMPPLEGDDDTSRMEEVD
T1 sequence (Q07954 20-4544 limits assumed): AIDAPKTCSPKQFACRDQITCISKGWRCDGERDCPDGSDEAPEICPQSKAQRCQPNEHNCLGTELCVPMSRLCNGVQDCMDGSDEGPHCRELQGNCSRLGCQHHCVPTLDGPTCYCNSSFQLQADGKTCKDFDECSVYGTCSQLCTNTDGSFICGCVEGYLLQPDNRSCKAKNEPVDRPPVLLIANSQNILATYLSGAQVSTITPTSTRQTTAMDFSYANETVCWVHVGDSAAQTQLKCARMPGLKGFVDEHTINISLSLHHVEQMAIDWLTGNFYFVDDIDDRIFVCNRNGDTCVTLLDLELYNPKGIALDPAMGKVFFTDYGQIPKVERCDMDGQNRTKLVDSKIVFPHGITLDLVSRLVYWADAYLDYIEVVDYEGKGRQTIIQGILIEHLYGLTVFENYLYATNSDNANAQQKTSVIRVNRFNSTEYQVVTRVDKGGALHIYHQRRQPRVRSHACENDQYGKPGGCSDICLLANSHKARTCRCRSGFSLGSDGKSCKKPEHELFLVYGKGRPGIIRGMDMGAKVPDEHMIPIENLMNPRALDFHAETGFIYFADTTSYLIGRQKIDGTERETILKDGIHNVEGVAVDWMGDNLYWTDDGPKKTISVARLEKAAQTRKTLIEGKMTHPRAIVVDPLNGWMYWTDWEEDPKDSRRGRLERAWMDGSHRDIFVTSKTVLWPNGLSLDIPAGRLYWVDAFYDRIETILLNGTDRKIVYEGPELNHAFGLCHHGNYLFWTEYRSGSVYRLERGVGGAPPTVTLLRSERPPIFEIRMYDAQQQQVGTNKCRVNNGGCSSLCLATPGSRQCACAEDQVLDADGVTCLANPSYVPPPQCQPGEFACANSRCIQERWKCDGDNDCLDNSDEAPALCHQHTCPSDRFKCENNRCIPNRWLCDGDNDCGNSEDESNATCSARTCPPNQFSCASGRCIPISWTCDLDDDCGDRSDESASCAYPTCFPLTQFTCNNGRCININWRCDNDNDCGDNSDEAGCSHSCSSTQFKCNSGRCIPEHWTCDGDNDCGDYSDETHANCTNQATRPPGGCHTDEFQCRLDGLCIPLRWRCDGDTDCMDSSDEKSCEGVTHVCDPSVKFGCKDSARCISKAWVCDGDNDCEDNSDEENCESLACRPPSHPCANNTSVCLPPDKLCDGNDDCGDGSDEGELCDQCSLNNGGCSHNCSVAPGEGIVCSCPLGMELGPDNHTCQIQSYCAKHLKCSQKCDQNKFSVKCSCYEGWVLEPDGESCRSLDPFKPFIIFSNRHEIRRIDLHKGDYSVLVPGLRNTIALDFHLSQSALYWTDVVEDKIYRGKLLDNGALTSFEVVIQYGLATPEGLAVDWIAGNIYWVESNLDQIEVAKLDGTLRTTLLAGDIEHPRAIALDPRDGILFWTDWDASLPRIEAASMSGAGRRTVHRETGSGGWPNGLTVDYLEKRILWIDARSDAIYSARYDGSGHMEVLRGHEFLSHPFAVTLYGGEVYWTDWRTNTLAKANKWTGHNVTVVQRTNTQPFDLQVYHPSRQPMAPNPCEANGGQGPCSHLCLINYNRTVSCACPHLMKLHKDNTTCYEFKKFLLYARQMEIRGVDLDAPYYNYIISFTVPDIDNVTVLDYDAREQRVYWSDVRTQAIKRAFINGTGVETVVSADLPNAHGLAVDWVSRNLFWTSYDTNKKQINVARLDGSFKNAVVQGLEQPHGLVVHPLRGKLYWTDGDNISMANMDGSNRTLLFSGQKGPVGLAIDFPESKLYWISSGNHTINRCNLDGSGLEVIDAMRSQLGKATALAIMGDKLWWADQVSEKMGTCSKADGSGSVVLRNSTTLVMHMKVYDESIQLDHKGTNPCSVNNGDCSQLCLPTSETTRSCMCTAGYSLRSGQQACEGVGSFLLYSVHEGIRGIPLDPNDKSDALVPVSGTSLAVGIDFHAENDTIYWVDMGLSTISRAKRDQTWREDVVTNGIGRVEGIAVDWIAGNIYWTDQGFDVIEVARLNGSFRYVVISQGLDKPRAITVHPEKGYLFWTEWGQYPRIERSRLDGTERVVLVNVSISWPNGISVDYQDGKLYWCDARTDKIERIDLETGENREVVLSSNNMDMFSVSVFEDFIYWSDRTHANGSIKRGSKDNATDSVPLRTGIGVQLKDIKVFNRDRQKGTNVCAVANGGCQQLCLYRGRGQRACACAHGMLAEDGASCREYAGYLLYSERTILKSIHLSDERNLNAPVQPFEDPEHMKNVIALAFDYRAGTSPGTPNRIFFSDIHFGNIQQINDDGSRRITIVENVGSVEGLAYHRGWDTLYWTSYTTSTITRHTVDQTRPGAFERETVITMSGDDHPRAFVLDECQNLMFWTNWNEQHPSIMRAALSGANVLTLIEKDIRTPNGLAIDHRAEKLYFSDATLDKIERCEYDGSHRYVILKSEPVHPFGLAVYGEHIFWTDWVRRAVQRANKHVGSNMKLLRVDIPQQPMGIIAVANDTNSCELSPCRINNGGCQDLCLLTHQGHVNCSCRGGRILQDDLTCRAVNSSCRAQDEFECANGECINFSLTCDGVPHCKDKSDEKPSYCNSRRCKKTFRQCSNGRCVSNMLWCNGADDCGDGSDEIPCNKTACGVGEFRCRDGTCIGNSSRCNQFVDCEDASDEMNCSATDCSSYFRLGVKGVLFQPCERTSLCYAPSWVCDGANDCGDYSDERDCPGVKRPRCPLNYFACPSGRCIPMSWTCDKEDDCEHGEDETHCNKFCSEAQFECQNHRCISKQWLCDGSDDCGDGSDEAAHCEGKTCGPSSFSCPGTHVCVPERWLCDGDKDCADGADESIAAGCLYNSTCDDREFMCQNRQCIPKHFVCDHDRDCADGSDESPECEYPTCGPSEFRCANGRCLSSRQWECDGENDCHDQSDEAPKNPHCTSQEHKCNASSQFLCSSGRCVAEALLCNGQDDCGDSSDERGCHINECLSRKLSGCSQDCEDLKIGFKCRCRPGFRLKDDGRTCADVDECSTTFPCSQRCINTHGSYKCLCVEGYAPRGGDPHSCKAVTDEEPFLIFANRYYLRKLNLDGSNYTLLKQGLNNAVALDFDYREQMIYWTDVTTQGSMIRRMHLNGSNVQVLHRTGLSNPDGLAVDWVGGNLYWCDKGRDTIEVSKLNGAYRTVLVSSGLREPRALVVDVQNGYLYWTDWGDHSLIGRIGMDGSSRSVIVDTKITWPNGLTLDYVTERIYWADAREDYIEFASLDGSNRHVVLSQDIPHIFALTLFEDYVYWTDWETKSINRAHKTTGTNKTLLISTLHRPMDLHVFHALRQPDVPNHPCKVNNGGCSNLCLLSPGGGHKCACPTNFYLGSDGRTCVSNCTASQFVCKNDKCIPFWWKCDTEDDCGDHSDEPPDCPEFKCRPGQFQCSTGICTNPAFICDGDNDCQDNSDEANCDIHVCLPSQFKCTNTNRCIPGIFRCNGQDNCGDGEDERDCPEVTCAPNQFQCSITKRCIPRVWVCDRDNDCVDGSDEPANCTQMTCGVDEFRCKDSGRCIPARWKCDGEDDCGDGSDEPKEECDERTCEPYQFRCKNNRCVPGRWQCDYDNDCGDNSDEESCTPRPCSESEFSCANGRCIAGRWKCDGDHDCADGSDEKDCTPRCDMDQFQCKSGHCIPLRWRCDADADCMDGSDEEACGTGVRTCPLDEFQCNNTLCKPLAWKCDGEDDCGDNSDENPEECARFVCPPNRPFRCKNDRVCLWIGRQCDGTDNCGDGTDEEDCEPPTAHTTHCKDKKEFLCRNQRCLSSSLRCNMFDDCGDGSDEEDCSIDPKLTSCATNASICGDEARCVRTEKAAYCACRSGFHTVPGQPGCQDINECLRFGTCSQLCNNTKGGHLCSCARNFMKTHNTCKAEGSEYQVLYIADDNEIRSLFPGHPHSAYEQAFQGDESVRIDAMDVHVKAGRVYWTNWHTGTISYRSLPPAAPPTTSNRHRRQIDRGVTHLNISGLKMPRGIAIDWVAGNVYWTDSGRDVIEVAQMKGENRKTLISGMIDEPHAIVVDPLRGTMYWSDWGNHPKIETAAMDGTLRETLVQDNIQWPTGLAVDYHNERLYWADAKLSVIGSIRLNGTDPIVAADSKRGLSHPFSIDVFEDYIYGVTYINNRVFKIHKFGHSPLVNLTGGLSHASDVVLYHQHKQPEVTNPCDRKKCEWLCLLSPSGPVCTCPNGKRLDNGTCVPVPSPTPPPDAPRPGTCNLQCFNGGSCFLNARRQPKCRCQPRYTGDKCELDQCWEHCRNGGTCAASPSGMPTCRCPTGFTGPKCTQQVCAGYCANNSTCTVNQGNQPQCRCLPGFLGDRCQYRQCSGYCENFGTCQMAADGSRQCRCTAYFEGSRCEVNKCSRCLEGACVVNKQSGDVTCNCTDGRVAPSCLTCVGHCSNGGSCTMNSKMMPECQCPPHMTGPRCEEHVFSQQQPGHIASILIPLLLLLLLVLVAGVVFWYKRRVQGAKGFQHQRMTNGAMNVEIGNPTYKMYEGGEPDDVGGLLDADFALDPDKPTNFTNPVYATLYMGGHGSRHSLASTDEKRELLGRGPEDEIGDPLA

B1: IKKα (enzyme, human, UniProt O15111 1-745, looked up)
single chain: MERPPGLRPGAGGPWEMRERLGTGGFGNVCLYQHRELDLKIAIKSCRLELSTKNRERWCHEIQIMKKLNHANVVKACDVPEELNILIHDVPLLAMEYCSGGDLRKLLNKPENCCGLKESQILSLLSDIGSGIRYLHENKIIHRDLKPENIVLQDVGGKIIHKIIDLGYAKDVDQGSLCTSFVGTLQYLAPELFENKPYTATVDYWSFGTMVFECIAGYRPFLHHLQPFTWHEKIKKKDPKCIFACEEMSGEVRFSSHLPQPNSLCSLVVEPMENWLQLMLNWDPQQRGGPVDLTLKQPRCFVLMDHILNLKIVHILNMTSAKIISFLLPPDESLHSLQSRIERETGINTGSQELLSETGISLDPRKPASQCVLDGVRGCDSYMVYLFDKSKTVYEGPFASRSLSDCVNYIVQDSKIQLPIIQLRKVWAEAVHYVSGLKEDYSRLFQGQRAAMLSLLRYNANLTKMKNTLISASQQLKAKLEFFHKSIQLDLERYSEQMTYGISSEKMLKAWKEMEEKAIHYAEVGVIGYLEDQIMSLHAEIMELQKSPYGRRQGDLMESLEQRAIDLYKQLKHRPSDHSYSDSTEMVKIIVHTVQSQDRVLKELFGHLSKLLGCKQKIIDLLPKVEVALSNIKEADNTVMFMQGKRQKEIWHLLKIACTQSSARSLVGSSLEGAVTPQTSAWLPPTSAEHDHSLSCVVTPQDGETSAQMIEENLNCLGHLSTIIHEANEEQGNSMMNLDWSWLTE
notes: endogenous, in cells; partner of CD91 in the proximity ligation assay
- binding result [1]: binds

B2: Clone-2-chimera anti-HSP90α antibody (antibody, V domains shown)
VH: EVQVVESGGGLVQPKGSLKLSCAASGFTFKTYAMNWVRQAPGKGLEWVARIRSKSRNYATYYADSVKDRFTISRDDSQFMFYLQMNNLKTEDTAMYYCVVGGSGFDYWGQGTTLTVSS
VL: DVLMTQTPLSLPVSLGDQASISCRSSQSIVHSNGNTYLEWYLQKPGQSPKLLIYKVSNRFSGVPDRFSGSGSGTDFTLSISRVEAGDLGVYYCFQGSHVPWTFGGGTKLEIK
notes: Clone-2 VH and VL joined to human IgG1 constant region (pFUSEss-CHIg-hG1e1; Fc with mutations at Q250T, E356D, M358L, L428M) and human κ constant region (pFUSE2ss-CLIg-hk); expressed in ExpiCHO cells
- koff [2]: 6.7e-05 s⁻¹
- kon [2]: 711000 M⁻¹ s⁻¹
- binding result (EDKEEEKEKE): no binding
- binding result (KPEIEDVGSD): no binding
- binding result (EIEDVGSDEE): no binding
- binding result (EDVGSDEEEE): no binding
- binding result (VGSDEEEEKK): no binding
- binding result (DKEVSDDEAE): no binding
- Kd [3]: 0.094 nM

B3: HH01 anti-HSP90α antibody (Clone-2-hA) (antibody, V domains shown)
VH: EVQLVESGGGLVQPGGSLRLSCAASGFTFKTYAMNWVRQAPGQGLEWVARIRSKSRNYATYYADSVKDRFTISRDDSKNQFYLQMNNLRTEDTAVYYCVVGGSGFDYWGQGTTLTVSS
VL: DVVMTQTPLSLPVSLGDQASISCRSSQSIVHSNGNTYLEWYLQKPGQSPQLLIYKVSNRFSGVPDRFSGSGSGTDFTLTISSVEAEDLGVYYCFQGSHVPWTFGGGTKLEIK
notes: expressed in ExpiCHO cells; also called HH01 antibody
- koff [2]: 0.000137 s⁻¹
- kon [2]: 729000 M⁻¹ s⁻¹
- binding result (KEKEEKESED): no binding
- binding result (SDEEEEKKDG): no binding
- binding result (EVSDDEAEEK): no binding
- Kd [3]: 0.187 nM

B4: Clone-2 anti-HSP90α antibody (mouse monoclonal) (antibody, V domains shown)
VH: EVQVVESGGGLVQPKGSLKLSCAASGFTFKTYAMNWVRQAPGKGLEWVARIRSKSRNYATYYADSVKDRFTISRDDSQFMFYLQMNNLKTEDTAMYYCVVGGSGFDYWGQGTTLTVSS
VL: DVLMTQTPLSLPVSLGDQASISCRSSQSIVHSNGNTYLEWYLQKPGQSPKLLIYKVSNRFSGVPDRFSGSGSGTDFTLSISRVEAGDLGVYYCFQGSHVPWTFGGGTKLEIK
notes: Mouse hybridoma antibody, IgG2b isotype with κ light chains; First tested as culture supernatant, then purified; also called Clone-2 antibody; parental Clone-2
- binding result (a.a. 630~732): no binding
